One block for each binder: values may come before it.
Experiments:
Glo3p = Glo3p (UniProt P38682 1-493); experiment: pull-down
Sar1p = Sar1p (UniProt P20606 1-190); experiment: pull-down
Chain of Sar1p (P20606 whole entry): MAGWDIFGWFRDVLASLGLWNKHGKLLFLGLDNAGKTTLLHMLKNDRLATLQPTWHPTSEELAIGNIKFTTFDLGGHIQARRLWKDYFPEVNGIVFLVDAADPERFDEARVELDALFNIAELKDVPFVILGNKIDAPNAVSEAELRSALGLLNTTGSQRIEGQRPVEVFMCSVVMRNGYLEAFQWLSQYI

Chain of Glo3p (P38682 whole entry): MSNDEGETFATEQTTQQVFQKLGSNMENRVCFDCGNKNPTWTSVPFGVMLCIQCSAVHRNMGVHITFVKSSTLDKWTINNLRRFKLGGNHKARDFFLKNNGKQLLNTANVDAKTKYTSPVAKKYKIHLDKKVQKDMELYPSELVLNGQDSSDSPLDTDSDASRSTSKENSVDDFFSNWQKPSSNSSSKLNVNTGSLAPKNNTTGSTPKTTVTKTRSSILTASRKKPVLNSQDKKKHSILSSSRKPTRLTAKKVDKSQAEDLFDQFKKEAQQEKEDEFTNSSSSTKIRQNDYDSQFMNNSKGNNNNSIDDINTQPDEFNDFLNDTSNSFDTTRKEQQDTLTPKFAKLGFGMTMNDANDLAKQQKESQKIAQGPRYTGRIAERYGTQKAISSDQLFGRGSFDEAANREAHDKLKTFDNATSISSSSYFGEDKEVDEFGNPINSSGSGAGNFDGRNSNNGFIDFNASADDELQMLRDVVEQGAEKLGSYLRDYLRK

binding result (Glo3p): binds
B1: Bet1p-(41–119) (domain or fragment)
chain: TDKLDYSQSTLASLESQSEEQMGAMGQRIKALKSLSLKMGDEIRGSNQTIDQLGDTFHNTSVKLKRTFGNMMEMARRSG

binding result (Sar1p): binds
B2: Bet1p-GST (domain or fragment)
chain: MSSRFAGGNAYQRDTGRTQLFGPADGSNSLDDNVSSALGSTDKLDYSQSTLASLESQSEEQMGAMGQRIKALKSLSLKMGDEIRGSNQTIDQLGDTFHNTSVKLKRTFGNMMEMARRSG

Source: paper PMC2173288 (The Journal of Cell Biology, 2002)
